According to US20200316163A1 (APELLIS PHARMACEUTICALS, published 2020):

Tests used:
Test in all cases: cell-based or functional assay
[1] = target: T1, human complement component C3 (human, UniProt P01024 23-1663)
[2] = target: T1, human complement component C3; remark: listed apart in the source
[3] = target: T1, human complement component C3; remark: listed apart in the source
[4] = target: T1, human complement component C3; remark: listed apart in the source

B1: CA28-AEEAc-Lys-(PEG30k) (peptide)
peptide: ICVWQDWGAHRCTK
modifications: not fully specified; N-terminal acetyl; 1-methyl-Trp at position 4; disulfide Cys2-Cys12; AEEAc (8-amino-3,6-dioxaoctanoyl) spacer between Thr13 and Lys; C-terminal amide; linear monofunctional 30 kD PEG (NOF ME-300GS) on the Lys side …
B1 was tested, and the “IC50, classical complement inhibition assay (C3b deposition ELISA, human plasma)” value [1] was 1260 nM.

B2: CA28-2GS-BF (bifunctionalized PEG-based compstatin analog, GS type) (peptide)
peptide: ICVWQDWGAHRCTK
modifications: not fully specified; N-terminal acetyl; 1-methyl-Trp at position 4; disulfide Cys2-Cys12; AEEAc spacer between Thr13 and Lys; C-terminal amide; Lys side chain coupled to one end of a linear bifunctional 40 kD PEG (glutaryl, GS type; amide plus ester linkage)
With B2 the “% Parent in Q1 (Type III cells with high C3d), modified Ham's test, 50 ug/ml” value [2] was 0.01%, the “% Parent in Q2 (Type I and II cells with high C3d), modified Ham's test, 50 ug/ml” value [2] was 0.01% and the “% Parent in Q3 (Type III cells without significant C3d), modified Ham's test, 50 ug/ml” value [2] was 61.5%. The “% Parent in Q4 (Type I and II cells without significant C3d), modified Ham's test, 50 ug/ml” value [2] was 38.5%.

B3: CA28-AEEAc-Lys-(PEG40k) (peptide)
peptide: ICVWQDWGAHRCTK
modifications: not fully specified; N-terminal acetyl; 1-methyl-Trp at position 4; disulfide Cys2-Cys12; AEEAc spacer between Thr13 and Lys; C-terminal amide; linear monofunctional 40 kD mPEG (NOF ME-400GS) on the Lys side chain
For B3, the “IC50, classical complement inhibition assay (C3b deposition ELISA, human plasma)” value [1] was 1290 nM and the “IC50 (read off the curve), inhibition of classical pathway complement activation (C3b deposition ELISA)” value (“IC50 (read off the curve), inhibition” for short) [3] was ~600 nM.

B4: (CA28-AEEAc)8-PEG40k (peptide)
peptide: ICVWQDWGAHRCTK
modifications: N-terminal acetyl; 1-methyl-Trp at position 4; disulfide Cys2-Cys12; AEEAc spacer between Thr13 and Lys; C-terminal amide; Lys side chain coupled to an arm of an eight-arm 40 kD PEG (NOF HGEO-400GS)
For B4, the “IC50 on a molar basis (corrected for 7.5 CA28 moieties per molecule), classical complement inhibition assay” value [4] was ~260 nM and the “IC50, classical complement inhibition assay (C3b deposition ELISA, human plasma), as a function of CA28 moiety concentration” value [1] was 1930 nM.

B5: CA28-AEEAc-Lys(mPEG40K-carbonyl) (peptide)
peptide: ICVWQDWGAHRCTK
modifications: not fully specified; N-terminal acetyl; 1-methyl-Trp at position 4; disulfide Cys2-Cys12; AEEAc spacer between Thr13 and Lys; C-terminal amide; linear 40 kD mPEG (NOF ME-400TS) on the Lys side chain
For B5, the “IC50 (read off the curve), inhibition” value [3] was ~600 nM.

B6: CA28-AEEAc-Lys(mPEG40K-succinyl) (peptide)
peptide: ICVWQDWGAHRCTK
modifications: N-terminal acetyl; 1-methyl-Trp at position 4; disulfide Cys2-Cys12; AEEAc spacer between Thr13 and Lys; C-terminal amide; linear 40 kD mPEG (NOF ME-400CS) on the Lys side chain
For B6, the “IC50 (read off the curve), inhibition” value [3] was ~700 nM.

B7: CA28-AEEAc-Lys(mPEG40K-hexanoyl) (peptide)
peptide: ICVWQDWGAHRCTK
modifications: N-terminal acetyl; 1-methyl-Trp at position 4; disulfide Cys2-Cys12; AEEAc spacer between Thr13 and Lys; C-terminal amide; linear 40 kD mPEG (NOF ME-400HS) on the Lys side chain
B7 was tested, and the “IC50 (read off the curve), inhibition” value [3] was ~700 nM.
